Drawing on paper PMC2721222 (Cancer research, 2009), this text covers Kd for two molecules.

The target in assay [1] is MUC1-CD cytoplasmic domain (Homo sapiens) (UniProt P15941). Particulars: cited from earlier work.
Assay [2] deals with T1, His-tagged MUC1 cytoplasmic domain (UniProt P15941 1182-1255).
T1 sequence (looked up): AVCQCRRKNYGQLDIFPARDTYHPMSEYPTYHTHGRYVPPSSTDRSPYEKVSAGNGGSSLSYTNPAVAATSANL
Briefly: SPR. For orientation: SPR reads the build-up and loss of mass on a sensor chip optically.

As for “MUC1-CD cytoplasmic domain (from UniProt P15941)”, the equilibrium dissociation constant (Kd) in assay [1] is 33 nM. As for CQCRRKNYGQLDIFP (poly D-arginine transduction domain (D-residues)) [GO-201], in assay [2], the Kd came to 30 nM.

By Kd is commonly meant a measure of binding affinity in units of concentration.
